Assay results as given in article PMC5595889.

Molecular target: mouse importin α1 lacking the N-terminal importin-β-binding domain (ΔIBB-importin α1) (mouse)
Experiment: ITC

influenza NLS2-K peptide (198-[…]-216)
Kd: 72.4 µM
